From publication PMC3208561, “Phylogenetic and Complementation Analysis of a Single-Stranded DNA Binding Protein Family from Lactococcal Phages Indicates a Non-Bacterial Origin”

Target: T1, Orf14bIL67 (phage SSB) (Lactococcus phage bIL67, UniProt Q38257 1-123)
T1 sequence: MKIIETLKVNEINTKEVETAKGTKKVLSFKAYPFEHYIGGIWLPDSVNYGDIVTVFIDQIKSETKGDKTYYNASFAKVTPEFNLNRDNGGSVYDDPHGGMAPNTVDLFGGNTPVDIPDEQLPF
Test: EMSA; 30°C; protein up to 100 nM, 0.5 nM DNA; 20 mM Tris-HCl pH 7.5, 25 mM KCl, 1 mM EDTA, 1 mM DTT, 2.5% glycerol, 0.3 mg/ml BSA; 10 min at 30 or 38°C; 5% native PAGE in 0.25x TBE at 4°C
Details: protein: recombinant; tags: IMPACT-CN (intein) purification; label: 5'-32P

B1: 80-mer oligonucleotide (ssDNA)
DNA: TTTGTCGGTACTTTATATTCTCTTATTACTGGCTCGAAAATGCCTCTGCCTAAATTACATGTTGGCGTTGTTAAATATGGGGG
binding result: binds
